Paper doi:10.1101/2023.09.21.558871, “Protein G-quadruplex interactions and their effects on phase transitions and protein aggregation”

Biological target: T1, Znf706 A2C-AF488 (Homo sapiens, UniProt Q9Y5V0 1-76, A2C)
T1 sequence: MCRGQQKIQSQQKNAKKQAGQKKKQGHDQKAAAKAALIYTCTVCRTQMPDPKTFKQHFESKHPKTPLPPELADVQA
Test: fluorescence anisotropy; 20 mM NaPi, 100 mM KCl, 0.05% NaN3, pH 7.4, 25 C (FP/anisotropy); unfolded G4: 20 mM Tris-HCl, 100 mM LiCl, pH 7.4; G4C2 also 20 mM NaPi, 100 mM NaCl, pH 7.4; NMR at 4 C or 37-50 C with 7.5% D2O
Details: protein: recombinant; tags: AF488 label on Cys; His6-SUMO cleaved

TTTTTTTTTTTTTTTTTTTT (ssDNA) [polyT]: no binding.

AAAAAAAAAAAAAAAAAAAA (ssDNA) [polyA]: no binding.
